Entries after “also recorded” stand apart in the source; their conditions may differ. Ends that are not written are not given here.
Columns and labels:
human PTH-1 receptor [1] = biological target: T1, human PTH-1 receptor (Homo sapiens, UniProt Q03431); assay: cAMP in LLC-PK1 cells stably transfected with the human PTH-1 receptor (LLC-B7 cells); type: cell-based; design: expressed in transfected cells
T1 sequence (Q03431 27-593): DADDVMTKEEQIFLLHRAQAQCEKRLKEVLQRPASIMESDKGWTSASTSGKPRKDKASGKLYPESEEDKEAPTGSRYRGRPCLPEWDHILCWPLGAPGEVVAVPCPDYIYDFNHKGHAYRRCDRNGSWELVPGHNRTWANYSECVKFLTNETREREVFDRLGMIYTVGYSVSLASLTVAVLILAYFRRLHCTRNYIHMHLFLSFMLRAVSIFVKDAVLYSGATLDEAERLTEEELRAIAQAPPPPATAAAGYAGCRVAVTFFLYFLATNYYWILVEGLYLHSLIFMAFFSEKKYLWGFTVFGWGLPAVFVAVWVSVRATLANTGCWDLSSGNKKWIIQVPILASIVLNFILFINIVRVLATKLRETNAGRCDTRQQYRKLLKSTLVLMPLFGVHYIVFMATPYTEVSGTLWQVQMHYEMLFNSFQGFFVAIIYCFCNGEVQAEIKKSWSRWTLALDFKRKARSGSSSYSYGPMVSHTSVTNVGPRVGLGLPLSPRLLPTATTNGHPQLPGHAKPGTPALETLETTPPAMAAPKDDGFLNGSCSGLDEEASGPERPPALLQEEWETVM
Description: FIG. 3. cAMP dose response curves of short amino-terminal PTH analogs in LLC-PK1 cells stably transfected with the human PTH-1 receptor (LLC-B7 cells). LLC-B7 cells in 24 plates were treated with the indicated peptides for 60 mins at 21° C., and then intracellular cAMP levels were measured. All PTH peptides shown are based on the rat PTH sequence and are carboxy-terminally amidated.
FIG. 7. cAMP activity of [Ile5]PTHrP(1-14). LLC-B7 cells were treated with the indicated peptide ligand, each at 100 μM, and then intracellular cAMP levels were measured.
Intracellular cAMP accumulation was measured as described previously (Abou-Samra et al., J. Biol. Chem. 262:1129, 1986). Cells in 24-well plates were rinsed with culture medium containing 0.1% BSA and 2 mM IBMX. The cells were then incubated with compounds of SEQ ID NO: 1 or derivatives thereof for 60 min. at 21° C. […] Intracellular cAMP was extracted by thawing the cells in 1 ml of 50 mM HCl and analyzed by a specific radioimmunoassay using an anti-cAMP antibody (e.g., Sigma, St. Louis, Mo.). […] The supernatant was removed and the bound radioactivity was counted in a gamma-counter (Micromedic). […]
The analysis extends to the PTHrP(1-14) sequence as well. […] LLC-B7 cells were treated with the indicated peptide ligand, each at 100 μM, and then intracellular cAMP levels were measured.

human PTH-1 receptor [2] = biological target: T1, human PTH-1 receptor; assay: cAMP accumulation in COS-7 cells expressing the cloned human PTH-1 receptor; type: cell-based; design: expressed in transfected cells; host or cells: COS-7; settings: for stimulation of cAMP formation: COS-7 cells expressing cloned human PTH-1 receptor, peptides at 67 μM, 30 minutes at 21° C.
Description: FIG. 1. Bioactivity of amino-terminal and carboxy-terminal fragments of PTH(1-34). Fragments of parathyroid hormone were synthesized by chemical methods and purified by reverse-phase HPLC. Peptides were tested for the ability to stimulate cAMP accumulation in COS-7 cells expressing the cloned human PTH-1 receptor. PTH(1-34) was tested at a dose of 1 μM, other peptides were tested at 67 μM. Peptides were tested in duplicate (±s.e.m.) at a dose of 67 μM. The cAMP in control untreated cells is indicated by Bsl. Cells were treated for 30 minutes at 21° C.
FIG. 2. Alanine-scan of PTH(1-14). Shown are the bioactivities of 14 different PTH(1-14) derivatives, each having a different amino acid of the native sequence (shown at bottom of figure) (SEQ ID NO:14) replaced by alanine. Peptides were chemically synthesized, purified and tested for ability to stimulate cAMP formation in COS-7 cells expressing the cloned human PTH-1 receptor. Peptides were tested in duplicate (±s.e.m.) at a dose of 67 μM. As a control, untreated cells, indicated by basal, were measured. The PTH(1-14) containing alanine at position 1 was used as the wild-type reference. Cells were stimulated for 30 minutes at 21° C.
Intracellular cAMP accumulation was measured as described previously (Abou-Samra et al., J. Biol. Chem. 262:1129, 1986). Cells in 24-well plates were rinsed with culture medium containing 0.1% BSA and 2 mM IBMX. The cells were then incubated with compounds of SEQ ID NO: 1 or derivatives thereof for 60 min. at 21° C. The supernatant was removed and the cells immediately frozen by placing the whole plate in dry ice powder. Intracellular cAMP was extracted by thawing the cells in 1 ml of 50 mM HCl and analyzed by a specific radioimmunoassay using an anti-cAMP antibody (e.g., Sigma, St. Louis, Mo.). A cAMP analog (2′-O-monosuccinyl-adenosine 3′:5′-cyclic monophosphate tyrosyl methyl ester, obtained from Sigma) which was used a tracer for cAMP was iodinated by the chloramine T method. Free iodine was removed by adsorbing the iodinated cAMP analog onto a C18 Sep-pak cartridge (Waters, Milford, Mass.). After washing with dH20, the iodinated cAMP analog was eluted from the Sep-pak Cartridge with 40% acetonitrille (ACN) and 0.1% trifluoroacetic acid (TFA). The iodinated cAMP analog was lyophilized, reconstituted in 1 ml 0.1% TFA, and injected into a C18 reverse phase HPLC column (Waters). The column was equilibrated with 10% ACN in 0.1% TFA, and eluted with gradient of 10-30% ACN in 0.1% TFA. This allows separation of the mono-iodinated cAMP analog from the non-iodinated cAMP analog. The tracer is stable for up to 4 months when stored at −20° C. […] The supernatant was removed and the bound radioactivity was counted in a gamma-counter (Micromedic). […]

[3] = system: untransfected LLC-PK1 cells; assay: cAMP dose response in LLC-B7 cells versus untransfected LLC-PK1 cells; type: cell-based, porcine; settings: LLC-B7 cells vs untransfected LLC-PK1 cells; FIG. 4
Description: FIG. 4. cAMP dose response curves of PTH(1-14) in LLC-B7 cells and in untransfected LLC-PK1 cells. PTH(1-14) and PTH(1-34) control peptides were tested as in FIG. 3.
(§1) PTH(1-14) specificity was also tested using the porcine renal cell line LLC-PK1, either untransfected or stably transfected with the human PTH-1 receptor, the LLC-B7 cell line.

[4] = biological target: T2, rat secretin receptor (rSR) (Rattus norvegicus, UniProt P23811); assay: cAMP in COS-7 cells transfected with rat secretin receptor (specificity); type: cell-based; settings: COS-7 cells transfected with rSR; FIG. 6
T2 construct: expressed in transfected cells; host or cells: COS-7
Description: FIG. 6. Specificity of PTH(1-14). […] Thus, the response to PTH(1-14) is dependent on the presence of the PTH-1 receptor.
as §1

PTH = settings: in vitro; cited from earlier work
AC = settings: cited from earlier work
the receptor = settings: cited from earlier work
rat PTH-1 receptor = biological target: T3, rat PTH-1 receptor (Rattus norvegicus, UniProt P25961); settings: CHO cells expressing cloned rat PTH-1 receptor; cited from earlier work
T3 sequence (P25961 27-591): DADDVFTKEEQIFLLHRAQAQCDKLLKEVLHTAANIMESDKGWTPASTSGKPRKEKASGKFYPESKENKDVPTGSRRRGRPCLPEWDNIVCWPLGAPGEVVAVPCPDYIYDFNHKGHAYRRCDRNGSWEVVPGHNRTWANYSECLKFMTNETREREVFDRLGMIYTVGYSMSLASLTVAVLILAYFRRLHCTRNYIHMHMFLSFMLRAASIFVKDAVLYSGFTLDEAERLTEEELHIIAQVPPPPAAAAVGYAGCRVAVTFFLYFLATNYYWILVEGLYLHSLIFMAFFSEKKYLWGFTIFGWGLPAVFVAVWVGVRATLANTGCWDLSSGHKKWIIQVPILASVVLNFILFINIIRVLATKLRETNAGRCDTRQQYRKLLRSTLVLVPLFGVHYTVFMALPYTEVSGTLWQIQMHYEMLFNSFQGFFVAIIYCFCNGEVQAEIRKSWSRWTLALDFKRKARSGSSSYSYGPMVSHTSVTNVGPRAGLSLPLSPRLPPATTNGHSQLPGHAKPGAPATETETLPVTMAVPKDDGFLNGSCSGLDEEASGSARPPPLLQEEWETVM

rat renal membranes = settings: cited from earlier work

T2 sequence (P23811 26-449): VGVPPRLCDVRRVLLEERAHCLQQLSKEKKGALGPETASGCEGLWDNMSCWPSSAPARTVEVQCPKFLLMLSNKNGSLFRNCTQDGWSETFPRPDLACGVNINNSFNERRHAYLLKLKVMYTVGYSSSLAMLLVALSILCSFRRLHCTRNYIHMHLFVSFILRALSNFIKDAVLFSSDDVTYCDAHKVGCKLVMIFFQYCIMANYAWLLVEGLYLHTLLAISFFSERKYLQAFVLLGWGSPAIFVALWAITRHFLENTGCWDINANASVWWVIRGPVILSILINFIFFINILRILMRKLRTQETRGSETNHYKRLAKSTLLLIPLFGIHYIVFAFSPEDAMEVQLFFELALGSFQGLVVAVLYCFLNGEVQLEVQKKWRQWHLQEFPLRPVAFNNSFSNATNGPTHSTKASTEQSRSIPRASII

**Q.** With AVSEIQLLHDKGKS [[Ile^5] PTHrP(1-14)] as the substance, how does the “cAMP activity, potency relative to native PTHrP(1-14)” value (human PTH-1 receptor [1]; each peptide at 100 μM, FIG. 7) read?
**A.** Its value is “enhanced potency, relative to native PTHrP(1-14)”.

**Q.** Which “stimulation of cAMP formation” value (human PTH-1 receptor [2]; FIG. 1) does the source give for AVSEIQLMH [[Ala^1] PTH(1-9)] here?
**A.** The value was “small cAMP response; also recorded: exhibits some biological activity”.

**Q.** What does the source list for “AlaValSerGluIleGlnLeuMetHisAsnLeuGlyLysHis (AVSEIQLMHNLGKH-NH2) [[Ala^1] PTH(1-14)]”?
**A.** activity relative to native PTH(1-34) (human PTH-1 receptor [2]; FIG. 1, PTH(1-34) at 1 μM, other peptides at 67 μM): weaker than native PTH(1-34); bioactivity relative to native PTH(1-14) (human PTH-1 receptor [2]; Ser1 to Ala substitution, compared with native PTH(1-14) peptide): measurable increase in bioactivity over the background level of bioactivity of the native PTH(1-14) peptide

**Q.** For “PTH(1-13): PTH variant truncated by one amino acid at the C-terminus, residues 1-13; rat PTH sequence (AVSEIQLMHNLGK)”, which “cAMP dose response activity” value (human PTH-1 receptor [1]; 60 mins at 21° C., rat PTH sequence, carboxy-terminally amidated, FIG. 3) is on record?
**A.** The value was “only very weak activity”.

**Q.** For “PTH(1-14): 1-14 fragment of PTH; peptides in FIG. 3 are based on the rat PTH sequence (alanine at position 1) (SVSEIQLMHNLGKH)”, which “dependence of cAMP response on PTH-1 receptor” value [3] is on record?
**A.** The value was “dependent on PTH-1 receptor expression; also recorded: completely dependent on the presence of the PTH-1 receptor”.

**Q.** What about the “stimulation of cAMP in cells expressing rat secretin receptor” value [4] of the same substance?
**A.** Its value is “inactive; also recorded: does not stimulate cAMP”.

**Q.** For “PTH(3-34): synthetic analog of bovine PTH (SEIQFMHNLGKHLSSMERVEWLRKKLQDVHNF; Parathyroid hormone; UniProt P01268 34-65, looked up, fragment)”, which PTH antagonist activity (PTH) is on record?
**A.** Its PTH antagonist activity is “potent PTH antagonist in vitro”.

**Q.** Which “stimulation of cAMP formation” value (human PTH-1 receptor [2]; FIG. 1) does the source give for “PTH(15-31): carboxy-terminal fragment of PTH(1-34) (LNSMERVEWLRKKLQDV; Parathyroid hormone; UniProt P01270 46-62, looked up, fragment) [reference compound]” here?
**A.** Its value is “inactive”.

**Q.** Which “activation of AC” value (AC) does the source give for PTH(15-34): PTH(15-34) fragment here?
**A.** Its value is “does not activate AC”.

**Q.** What about the receptor binding (the receptor) of the same substance?
**A.** The receptor binding was “binds weakly”.

**Q.** For “PTHrP(1-16): short NH2-terminal PTHrP peptide investigated previously (AVSEHQLLHDKGKSIQ; Parathyroid hormone-related protein; UniProt P12272 37-52, looked up, fragment)”, which AC activity (rat PTH-1 receptor) is on record?
**A.** Its AC activity is “inactive”.

**Q.** Which adenylyl cyclase activity (rat renal membranes) does the source give for “bPTH(1-12): short NH2-terminal PTH peptide investigated previously (AVSEIQFMHNLG; Parathyroid hormone; UniProt P01268 32-43, looked up, fragment)” here?
**A.** The adenylyl cyclase activity was “inactive”.

**Q.** Which “stimulation of cAMP in cells expressing rat secretin receptor” value [4] does the source give for “secretin (1-27): control native secretin (1-27) [reference compound]” here?
**A.** Its value is “responds fully”.

— patent publication US7985835B2, “Bioactive peptides and peptide derivatives of parathyroid hormone (PTH) and parathyroid hormone-related peptide (PTHrP)” (The General Hospital Corporation, priority 1998, dated 2011)
